Reference: article PMC12382605, “Dominant negative ADA2 mutations cause ADA2 deficiency in heterozygous carriers” (The Journal of Experimental Medicine, 2025)
Changes are numbered by the printed parent chain. Numbers in names are those of the source. Values belong to the binder of their own block, whether it stands above or below them.

Key:
[1] = target: T1, human WT ADA2, myc-FLAG-tagged (pCMV6) (human, UniProt Q9NZK5-1 30-511); test: cell-based or functional assay
T1 sequence (looked up): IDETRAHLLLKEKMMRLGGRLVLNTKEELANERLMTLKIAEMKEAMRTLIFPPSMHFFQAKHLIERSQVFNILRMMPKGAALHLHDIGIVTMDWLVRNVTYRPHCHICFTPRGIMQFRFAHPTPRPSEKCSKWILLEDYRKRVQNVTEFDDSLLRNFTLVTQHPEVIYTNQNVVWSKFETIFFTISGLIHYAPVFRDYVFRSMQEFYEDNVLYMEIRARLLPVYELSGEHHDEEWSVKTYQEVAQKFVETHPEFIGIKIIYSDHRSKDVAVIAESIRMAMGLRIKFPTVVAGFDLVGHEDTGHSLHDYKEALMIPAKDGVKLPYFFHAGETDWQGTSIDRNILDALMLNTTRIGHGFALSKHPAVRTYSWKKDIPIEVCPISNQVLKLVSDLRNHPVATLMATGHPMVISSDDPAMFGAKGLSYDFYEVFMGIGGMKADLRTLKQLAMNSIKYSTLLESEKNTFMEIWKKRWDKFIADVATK

[2] = target: the molecule itself; test: native gel or EMSA; supernatant of HEK293T transfected with one ADA2 construct (homozygous condition), collected after 48 h; NativePAGE 4-16% Bis-Tris, western blot with anti-ADA2; dimer band quantified relative to WT100%

B1: ADA2 variant G47A, myc-FLAG-tagged (pCMV6) (enzyme, human, UniProt Q9NZK5-1 30-511, looked up)
chain: T1 sequence (looked up) with G18A
notes: adenosine deaminase 2 (ADA2), human; site-directed mutant of the WT clone of transcript 3, NM_001282225 (OriGene RC238645); Pathogenic variant that occurs in patients; also called p.G47A; source: HEK293T, transfected; in supernatant and whole-cell lysate
adenosine deaminase activity of whole-cell lysate and supernatant of HEK293T cotransfected with WT and variant ADA2 (heterozygous), relative to WT50% [1]: < 75 % of WT50% | residual dimer in the supernatant (% of WT100%) [2]: ~48 % of WT100%

B2: ADA2 variant E328K, myc-FLAG-tagged (pCMV6) (enzyme, human, UniProt Q9NZK5-1 30-511, looked up)
chain: T1 sequence (looked up) with E299K
adenosine deaminase activity of whole-cell lysate and supernatant of HEK293T cotransfected with WT and variant ADA2 (heterozygous), relative to WT50% [1]: < 75 % of WT50%

B4: ADA2 variant G47R, myc-FLAG-tagged (pCMV6) (enzyme, human, UniProt Q9NZK5-1 30-511, looked up)
chain: T1 sequence (looked up) with G18R
notes: adenosine deaminase 2 (ADA2), human; site-directed mutant of the WT clone of transcript 3, NM_001282225 (OriGene RC238645); Patient variant; also called p.G47R; source: HEK293T, transfected; in supernatant and whole-cell lysate
adenosine deaminase activity of whole-cell lysate and supernatant of HEK293T cotransfected with WT and variant ADA2 (heterozygous), relative to WT50% [1]: < 75 % of WT50% | residual dimer in the supernatant (% of WT100%) [2]: ~53 % of WT100%

B6: ADA2 variant G47W, myc-FLAG-tagged (pCMV6) (enzyme, human, UniProt Q9NZK5-1 30-511, looked up)
chain: T1 sequence (looked up) with G18W
notes: adenosine deaminase 2 (ADA2), human; site-directed mutant of the WT clone of transcript 3, NM_001282225 (OriGene RC238645); Pathogenic variant that occurs in patients; source: HEK293T, transfected, in supernatant
residual dimer in the supernatant (% of WT100%) [2]: ~9 % of WT100%

The next lines start with the values.

adenosine deaminase activity of the supernatant of HEK293T cotransfected with WT and variant ADA2 (heterozygous), relative to WT50% [1]: 58 % of WT50%
B3: ADA2 variant G47V, myc-FLAG-tagged (pCMV6) (enzyme, human, UniProt Q9NZK5-1 30-511, looked up)
chain: T1 sequence (looked up) with G18V

adenosine deaminase activity of the supernatant of HEK293T cotransfected with WT and variant ADA2 (heterozygous), relative to WT50% [1]: 23 % of WT50%
B5: ADA2 variant R169Q, myc-FLAG-tagged (pCMV6) (enzyme, human, UniProt Q9NZK5-1 30-511, looked up)
chain: T1 sequence (looked up) with R140Q

adenosine deaminase activity of whole-cell lysate and supernatant of HEK293T cotransfected with WT and variant ADA2 (heterozygous), relative to WT50% [1]: 41 % of WT50%
B7: ADA2 variant Y453C, myc-FLAG-tagged (pCMV6) (enzyme, human, UniProt Q9NZK5-1 30-511, looked up)
chain: T1 sequence (looked up) with Y424C
